Tests used:
[1] = target: T1, cyclin A/CDK2 (Homo sapiens, UniProt P24941); assay: In vitro kinase assay of cyclin A/CDK2 on biotinylated p27KIP1 substrate peptides (Michaelis-Menten kinetics); assay type: biochemical; details: for Relative rate (maximal relative rate of phosphoryl transfer) / Km: 50 μM ATP and 1 μCi 32P-γ-ATP, 10 min, 30°C, 50 mM Tris-HCl pH 7.5, 10 mM MgCl2, SAM2 membrane, scintillation counting, Michaelis-Menten fit (GraphPad Prism), Fig. 5: mean values ± SD of 5 experiments performed in duplicates; for Km: peptide substrate
T1 construct: made in house; host or cells: Sf9 insect cells (Spodoptera frugiperda), baculovirus co-infection
Experimental: Fig. 5 Analysis of cyclin A/CDK2 kinase activity on p27^KIP1 substrate peptides. Cyclin A/CDK2 Kinase purified from Sf9 cells was incubated with increasing concentrations of p27^KIP1 wild type and the R194A mutant peptide as indicated. Phosphorylation of the peptides was monitored after immobilisation on SAM2 membrane by scintillation counting and analysis by GraphPad Prism software. Shown are mean values ± SD of 5 experiments performed in duplicates
Human cyclin A/CDK2 complexes were expressed in SF9 insect cells (Spodoptera frugiperda) upon infection with recombinant baculo viruses encoding either cyclin A or CDK2. The complex was purified using the GST tag of cyclin A [49]. In vitro kinase assays of cyclin A/CDK2 were performed in kinase buffer (50 mM Tris-HCl, pH 7.5, 10 mM MgCl2, 1 mM EGTA, 1 mM DTT, 40 mM α-glycero-phosphate, 20 mM p-nitrophenylphosphate, 0.1 mM sodium vanadate, 0.01% BriJ 35) containing 50 μM ATP and 1 μCi ^32P-γ-ATP for 10 min at 30°C in the presence of increasing amount of biotinylated p27^KIP1 wild type or R194A (an arginine to alanine substitution at position 194) peptides as substrates. The assays were terminated by adding 12.5 μl 7.5 M guanidine hydrochloride. The peptides were immobilized on SAM2 Biotin Capture Membranes (Promega), extensively washed as described in the manufacturer’s protocol, and then monitored for radioactivity in a liquid scintillation counter to calculate the specific kinase activity. Kinetic parameters were determined with GraphPad Prism software built-in “Enzyme kinetic Michaelis-Menten”. The sequence of the p27^KIP1 wild type peptide corresponds to amino acids 180 to 194. The peptides were synthesized with a biotin-PEG-20-linker and purified by HPLC at the Peptide Specialty Laboratories, Heidelberg (Germany).

[2] = target: Human cyclin A/CDK2 complex (human) (UniProt P20248)

N180AGSVEQTPKKPGLA [Peptide R194A, p27KIP1 peptide with an arginine to alanine substitution at position 194]
Relative rate (maximal relative rate of phosphoryl transfer) [1]: 1.11 pmol/min
Km [1]: 81.4 µM

N180AGSVEQTPKKPGLR [wt, p27KIP1 wild type peptide corresponding to amino acids 180 to 194]
Relative rate (maximal relative rate of phosphoryl transfer) [1]: 2.21 pmol/min
Km [1]: 93.6 µM
turnover rate of the wt peptide relative to the R194A mutant peptide ([1]; wt versus R194A, in words): twice as high

p27^KIP1 R194A peptide (amino acids 180 to 194)
Km of peptide phosphorylation by cyclin A/CDK2, in vitro kinase assay (32P-γ-ATP, 50 μM ATP, 10 min, 30°C) [2]: 81.4 µM
Relative rate/Km of peptide phosphorylation by cyclin A/CDK2, in vitro kinase assay [2]: 0.0135
maximal relative rate of phosphoryl transfer by cyclin A/CDK2, in vitro kinase assay [2]: 1.11 pmol/min

p27^KIP1 wild-type peptide (amino acids 180 to 194)
Km of peptide phosphorylation by cyclin A/CDK2, in vitro kinase assay (32P-γ-ATP, 50 μM ATP, 10 min, 30°C) [2]: 93.6 µM
Relative rate/Km of peptide phosphorylation by cyclin A/CDK2, in vitro kinase assay [2]: 0.0195
maximal relative rate of phosphoryl transfer by cyclin A/CDK2, in vitro kinase assay [2]: 2.21 pmol/min

From PMC5217639, “Structural prediction of the interaction of the tumor suppressor p27^KIP1 with cyclin A/CDK2 identifies a novel catalytically relevant determinant” (BMC Bioinformatics, 2017)
